*1 amine or outer side, *2 acyl side, *3 side chain or, on linkers, in order; H or OH if unused. Bridges are numbered along the chain shown (N, C = ends). [ ]: non-standard residue; d: D form. The star is where a group is joined. C20 diacid = O=C(O)CCCCCCCCCCCCCCCCCCC(=O)*; γGlu = O=C(O)[C@H](CCC(=O)[*:2])N[*:1]; Hyp = O=C(O)[C@@H]1C[C@@H](O)CN1; NMeI = CC[C@H](C)[C@H](NC)C(=O)O; Sar = CNCC(=O)O
T1: human amylin receptor 3 (hAMYR3), hCTR2 co-expressed with human receptor activity modifying protein 3 (hRAMP3) (human, UniProt P30988 25-474; O60896 24-148)
T1 sequence (looked up) 1: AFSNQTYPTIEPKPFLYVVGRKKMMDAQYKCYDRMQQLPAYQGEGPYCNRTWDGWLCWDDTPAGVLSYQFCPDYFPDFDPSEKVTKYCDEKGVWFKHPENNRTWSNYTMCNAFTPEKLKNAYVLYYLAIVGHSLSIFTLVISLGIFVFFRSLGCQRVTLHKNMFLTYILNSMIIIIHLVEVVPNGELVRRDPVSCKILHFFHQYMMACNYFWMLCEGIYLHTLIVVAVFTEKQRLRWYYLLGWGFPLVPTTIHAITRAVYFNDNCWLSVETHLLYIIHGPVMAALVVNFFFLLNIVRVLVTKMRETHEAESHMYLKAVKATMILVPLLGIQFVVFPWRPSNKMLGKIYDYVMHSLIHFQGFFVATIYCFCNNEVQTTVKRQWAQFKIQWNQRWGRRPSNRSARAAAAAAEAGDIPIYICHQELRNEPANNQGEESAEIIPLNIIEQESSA
T1 sequence (looked up) 2: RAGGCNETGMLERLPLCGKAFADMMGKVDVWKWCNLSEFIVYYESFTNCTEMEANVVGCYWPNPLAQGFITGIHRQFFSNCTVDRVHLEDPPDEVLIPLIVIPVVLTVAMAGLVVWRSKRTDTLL

B1: [19CD]-isoGlu-R-C( )-NTAT-C( )-ATQRLADFLQRSSF-Gly(Me)-A-Ile(Me)-LSSTEVGSTT-Hyp-NH2 (Compd. 83) (peptide)
peptide: {C20 diacid-γGlu}-RCNTATCATQRLADFLQRSSF[Sar]A[NMeI]LSSTEVGSTT[Hyp]-NH2
modifications: disulfide 2-7
SMILES: CC[C@H](C)[C@@H](C(=O)N[C@@H](CC(C)C)C(=O)N[C@@H](CO)C(=O)N[C@@H](CO)C(=O)N[C@H](C(=O)N[C@@H](CCC(=O)O)C(=O)N[C@H](C(=O)NCC(=O)N[C@@H](CO)C(=O)N[C@H](C(=O)N[C@H](C(=O)N1C[C@H](O)C[C@H]1C(N)=O)[C@@H](C)O)[C@@H](C)O)C(C)C)[C@@H](C)O)N(C)C(=O)[C@H](C)NC(=O)CN(C)C(=O)[C@H](Cc1ccccc1)NC(=O)[C@H](CO)NC(=O)[C@H](CO)NC(=O)[C@H](CCCNC(=N)N)NC(=O)[C@H](CCC(N)=O)NC(=O)[C@H](CC(C)C)NC(=O)[C@H](Cc1ccccc1)NC(=O)[C@H](CC(=O)O)NC(=O)[C@H](C)NC(=O)[C@H](CC(C)C)NC(=O)[C@H](CCCNC(=N)N)NC(=O)[C@H](CCC(N)=O)NC(=O)[C@@H](NC(=O)[C@H](C)NC(=O)[C@@H]1CSSC[C@H](NC(=O)[C@H](CCCNC(=N)N)NC(=O)CC[C@H](NC(=O)CCCCCCCCCCCCCCCCCCC(=O)O)C(=O)O)C(=O)N[C@@H](CC(N)=O)C(=O)N[C@@H]([C@@H](C)O)C(=O)N[C@@H](C)C(=O)N[C@@H]([C@@H](C)O)C(=O)N1)[C@@H](C)O
B2: [19CD]-isoGlu-R-C( )-NTAT-C( )-ATQRLADFLQRSSF-Gly(Me)-A-Ile(Me)-LSSTEVGSGT-Hyp-NH2 (Compd. 81) (peptide)
peptide: {C20 diacid-γGlu}-RCNTATCATQRLADFLQRSSF[Sar]A[NMeI]LSSTEVGSGT[Hyp]-NH2
modifications: disulfide 2-7
SMILES: CC[C@H](C)[C@@H](C(=O)N[C@@H](CC(C)C)C(=O)N[C@@H](CO)C(=O)N[C@@H](CO)C(=O)N[C@H](C(=O)N[C@@H](CCC(=O)O)C(=O)N[C@H](C(=O)NCC(=O)N[C@@H](CO)C(=O)NCC(=O)N[C@H](C(=O)N1C[C@H](O)C[C@H]1C(N)=O)[C@@H](C)O)C(C)C)[C@@H](C)O)N(C)C(=O)[C@H](C)NC(=O)CN(C)C(=O)[C@H](Cc1ccccc1)NC(=O)[C@H](CO)NC(=O)[C@H](CO)NC(=O)[C@H](CCCNC(=N)N)NC(=O)[C@H](CCC(N)=O)NC(=O)[C@H](CC(C)C)NC(=O)[C@H](Cc1ccccc1)NC(=O)[C@H](CC(=O)O)NC(=O)[C@H](C)NC(=O)[C@H](CC(C)C)NC(=O)[C@H](CCCNC(=N)N)NC(=O)[C@H](CCC(N)=O)NC(=O)[C@@H](NC(=O)[C@H](C)NC(=O)[C@@H]1CSSC[C@H](NC(=O)[C@H](CCCNC(=N)N)NC(=O)CC[C@H](NC(=O)CCCCCCCCCCCCCCCCCCC(=O)O)C(=O)O)C(=O)N[C@@H](CC(N)=O)C(=O)N[C@@H]([C@@H](C)O)C(=O)N[C@@H](C)C(=O)N[C@@H]([C@@H](C)O)C(=O)N1)[C@@H](C)O
B3: [19CD]-isoGlu-R-C( )-GTAT-C( )-ATERLAHFLQRSSF-Gly(Me)-A-Ile(Me)-LSSTEVGSNTP-NH2 (Compd. 78) (peptide)
peptide: {C20 diacid}-[γGlu]RCGTATCATERLAHFLQRSSF[Sar]A[NMeI]LSSTEVGSNTP-NH2
modifications: disulfide 3-8
SMILES: CC[C@H](C)[C@@H](C(=O)N[C@@H](CC(C)C)C(=O)N[C@@H](CO)C(=O)N[C@@H](CO)C(=O)N[C@H](C(=O)N[C@@H](CCC(=O)O)C(=O)N[C@H](C(=O)NCC(=O)N[C@@H](CO)C(=O)N[C@@H](CC(N)=O)C(=O)N[C@H](C(=O)N1CCC[C@H]1C(N)=O)[C@@H](C)O)C(C)C)[C@@H](C)O)N(C)C(=O)[C@H](C)NC(=O)CN(C)C(=O)[C@H](Cc1ccccc1)NC(=O)[C@H](CO)NC(=O)[C@H](CO)NC(=O)[C@H](CCCNC(=N)N)NC(=O)[C@H](CCC(N)=O)NC(=O)[C@H](CC(C)C)NC(=O)[C@H](Cc1ccccc1)NC(=O)[C@H](Cc1c[nH]cn1)NC(=O)[C@H](C)NC(=O)[C@H](CC(C)C)NC(=O)[C@H](CCCNC(=N)N)NC(=O)[C@H](CCC(=O)O)NC(=O)[C@@H](NC(=O)[C@H](C)NC(=O)[C@@H]1CSSC[C@H](NC(=O)[C@H](CCCNC(=N)N)NC(=O)CC[C@H](NC(=O)CCCCCCCCCCCCCCCCCCC(=O)O)C(=O)O)C(=O)NCC(=O)N[C@@H]([C@@H](C)O)C(=O)N[C@@H](C)C(=O)N[C@@H]([C@@H](C)O)C(=O)N1)[C@@H](C)O
B4: [19CD]-isoGlu-R-C( )-NTAT-C( )-ATQRLADFLQRSSF-Gly(Me)-A-Ile(Me)-LSSTEVGSTTP-NH2 (Compd. 82) (peptide)
peptide: {C20 diacid-γGlu}-RCNTATCATQRLADFLQRSSF[Sar]A[NMeI]LSSTEVGSTTP-NH2
modifications: disulfide 2-7
SMILES: CC[C@H](C)[C@@H](C(=O)N[C@@H](CC(C)C)C(=O)N[C@@H](CO)C(=O)N[C@@H](CO)C(=O)N[C@H](C(=O)N[C@@H](CCC(=O)O)C(=O)N[C@H](C(=O)NCC(=O)N[C@@H](CO)C(=O)N[C@H](C(=O)N[C@H](C(=O)N1CCC[C@H]1C(N)=O)[C@@H](C)O)[C@@H](C)O)C(C)C)[C@@H](C)O)N(C)C(=O)[C@H](C)NC(=O)CN(C)C(=O)[C@H](Cc1ccccc1)NC(=O)[C@H](CO)NC(=O)[C@H](CO)NC(=O)[C@H](CCCNC(=N)N)NC(=O)[C@H](CCC(N)=O)NC(=O)[C@H](CC(C)C)NC(=O)[C@H](Cc1ccccc1)NC(=O)[C@H](CC(=O)O)NC(=O)[C@H](C)NC(=O)[C@H](CC(C)C)NC(=O)[C@H](CCCNC(=N)N)NC(=O)[C@H](CCC(N)=O)NC(=O)[C@@H](NC(=O)[C@H](C)NC(=O)[C@@H]1CSSC[C@H](NC(=O)[C@H](CCCNC(=N)N)NC(=O)CC[C@H](NC(=O)CCCCCCCCCCCCCCCCCCC(=O)O)C(=O)O)C(=O)N[C@@H](CC(N)=O)C(=O)N[C@@H]([C@@H](C)O)C(=O)N[C@@H](C)C(=O)N[C@@H]([C@@H](C)O)C(=O)N1)[C@@H](C)O
B5: [19CD]-isoGlu-R-C( )-NTAT-C( )-ATQRLADFLQRSSF-Gly(Me)-A-Ile(Me)-LSSTEVGSGTP-NH2 (Compd. 80) (peptide)
peptide: {C20 diacid-γGlu}-RCNTATCATQRLADFLQRSSF[Sar]A[NMeI]LSSTEVGSGTP-NH2
modifications: disulfide 2-7
SMILES: CC[C@H](C)[C@@H](C(=O)N[C@@H](CC(C)C)C(=O)N[C@@H](CO)C(=O)N[C@@H](CO)C(=O)N[C@H](C(=O)N[C@@H](CCC(=O)O)C(=O)N[C@H](C(=O)NCC(=O)N[C@@H](CO)C(=O)NCC(=O)N[C@H](C(=O)N1CCC[C@H]1C(N)=O)[C@@H](C)O)C(C)C)[C@@H](C)O)N(C)C(=O)[C@H](C)NC(=O)CN(C)C(=O)[C@H](Cc1ccccc1)NC(=O)[C@H](CO)NC(=O)[C@H](CO)NC(=O)[C@H](CCCNC(=N)N)NC(=O)[C@H](CCC(N)=O)NC(=O)[C@H](CC(C)C)NC(=O)[C@H](Cc1ccccc1)NC(=O)[C@H](CC(=O)O)NC(=O)[C@H](C)NC(=O)[C@H](CC(C)C)NC(=O)[C@H](CCCNC(=N)N)NC(=O)[C@H](CCC(N)=O)NC(=O)[C@@H](NC(=O)[C@H](C)NC(=O)[C@@H]1CSSC[C@H](NC(=O)[C@H](CCCNC(=N)N)NC(=O)CC[C@H](NC(=O)CCCCCCCCCCCCCCCCCCC(=O)O)C(=O)O)C(=O)N[C@@H](CC(N)=O)C(=O)N[C@@H]([C@@H](C)O)C(=O)N[C@@H](C)C(=O)N[C@@H]([C@@H](C)O)C(=O)N1)[C@@H](C)O
B6: [19CD]-isoGlu-R-C( )-NTAT-C( )-ATQRLAHFLQRF-Gly(Me)-A-Ile(Me)-LSSTEVGSGT-Hyp-NH2 (Compd. 79) (peptide)
peptide: {C20 diacid-γGlu}-RCNTATCATQRLAHFLQRF[Sar]A[NMeI]LSSTEVGSGT[Hyp]-NH2
modifications: disulfide 2-7
SMILES: CC[C@H](C)[C@@H](C(=O)N[C@@H](CC(C)C)C(=O)N[C@@H](CO)C(=O)N[C@@H](CO)C(=O)N[C@H](C(=O)N[C@@H](CCC(=O)O)C(=O)N[C@H](C(=O)NCC(=O)N[C@@H](CO)C(=O)NCC(=O)N[C@H](C(=O)N1C[C@H](O)C[C@H]1C(N)=O)[C@@H](C)O)C(C)C)[C@@H](C)O)N(C)C(=O)[C@H](C)NC(=O)CN(C)C(=O)[C@H](Cc1ccccc1)NC(=O)[C@H](CCCNC(=N)N)NC(=O)[C@H](CCC(N)=O)NC(=O)[C@H](CC(C)C)NC(=O)[C@H](Cc1ccccc1)NC(=O)[C@H](Cc1c[nH]cn1)NC(=O)[C@H](C)NC(=O)[C@H](CC(C)C)NC(=O)[C@H](CCCNC(=N)N)NC(=O)[C@H](CCC(N)=O)NC(=O)[C@@H](NC(=O)[C@H](C)NC(=O)[C@@H]1CSSC[C@H](NC(=O)[C@H](CCCNC(=N)N)NC(=O)CC[C@H](NC(=O)CCCCCCCCCCCCCCCCCCC(=O)O)C(=O)O)C(=O)N[C@@H](CC(N)=O)C(=O)N[C@@H]([C@@H](C)O)C(=O)N[C@@H](C)C(=O)N[C@@H]([C@@H](C)O)C(=O)N1)[C@@H](C)O

The binders below were run against T1, human amylin receptor 3 (hAMYR3), hCTR2 … (assay: cell-based or functional assay).

hAMYR3 EC50 (nM); cAMP induction [nM]	Binder
0.32	B1
0.23	B2
0.24	B3
0.36	{C20 diacid}-[γGlu]RCGTATCATERLAHFLERSSF[Sar]A[NMeI]LSSTEVGSNT[Hyp]-NH2 (disulfide 3-8) [[19CD]-isoGlu-R-C( )-GTAT-C( )-ATERLAHFLERSSF-Gly(Me)-A-Ile(Me)-LSSTEVGSNT-Hyp-NH2 (Compd. 8)]
0.53	B4
0.28	B5
0.23	B6

— patent publication US20160272693A1 (ZEALAND PHARMA A S, published 2016)
